Results on one substance are retold here after EP2452948B1.

The experiment has as its target Hsp90α in MCF-7 cells (Thr90 phosphorylated, intracellular) (human). In words: cell-based or functional assay.

Substance “human PP5 in MCF-7 cells (overexpressed from pcDNA3.1/Myc-His(-), or the endogenous protein knocked down by siRNA) (enzyme)” yielded a Thr90 phosphorylated Hsp90α level in MCF-7 cells on overexpression of human PP5 (of the control) of 0.55 and a Thr90 phosphorylated Hsp90α level in MCF-7 cells on siRNA knock-down of human PP5 (of the control) of 1.58.
